Article PMC11272584 (Nature Metabolism, 2024)
Positions count from the first letter of the chain named. In names and notes the source's numbering stands.

T1: GIPR L304R (Homo sapiens, UniProt P48546, L304R)
T1 construct: host or cells: HEK293
T1 sequence (P48546 22-466 L304R): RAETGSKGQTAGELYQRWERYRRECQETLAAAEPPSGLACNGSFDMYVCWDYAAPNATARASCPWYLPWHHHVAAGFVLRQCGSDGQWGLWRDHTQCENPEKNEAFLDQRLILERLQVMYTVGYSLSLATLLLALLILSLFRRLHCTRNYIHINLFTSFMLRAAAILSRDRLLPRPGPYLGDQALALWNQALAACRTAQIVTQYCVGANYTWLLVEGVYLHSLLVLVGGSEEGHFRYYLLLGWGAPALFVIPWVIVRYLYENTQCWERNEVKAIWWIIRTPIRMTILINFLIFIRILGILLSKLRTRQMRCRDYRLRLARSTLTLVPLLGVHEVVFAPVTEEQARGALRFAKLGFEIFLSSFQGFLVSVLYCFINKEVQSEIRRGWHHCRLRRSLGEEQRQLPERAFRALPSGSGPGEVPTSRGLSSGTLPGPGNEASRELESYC

T2: GIPR R336P (Homo sapiens, UniProt P48546, R336P)
T2 construct: host or cells: HEK293
T2 sequence (P48546 22-466 R336P): T1 sequence (P48546 22-466 L304R) with R283L, R315P

T3: GIPR E354Q (Homo sapiens, UniProt P48546, E354Q)
T3 construct: host or cells: HEK293
T3 sequence (P48546 22-466 E354Q): T1 sequence (P48546 22-466 L304R) with R283L, E333Q

T4: GIPR I378M (Homo sapiens, UniProt P48546, I378M)
T4 construct: host or cells: HEK293
T4 sequence (P48546 22-466 I378M): T1 sequence (P48546 22-466 L304R) with R283L, I357M

T5: GIPR S382T (Homo sapiens, UniProt P48546, S382T)
T5 construct: host or cells: HEK293
T5 sequence (P48546 22-466 S382T): T1 sequence (P48546 22-466 L304R) with R283L, S361T

T6: GIPR S382Y (Homo sapiens, UniProt P48546, S382Y)
T6 construct: host or cells: HEK293
T6 sequence (P48546 22-466 S382Y): T1 sequence (P48546 22-466 L304R) with R283L, S361Y

T7: GIPR K397N (Homo sapiens, UniProt P48546, K397N)
T7 construct: host or cells: HEK293
T7 sequence (P48546 22-466 K397N): T1 sequence (P48546 22-466 L304R) with R283L, K376N

T8: GIPR V399M (Homo sapiens, UniProt P48546, V399M)
T8 construct: host or cells: HEK293
T8 sequence (P48546 22-466 V399M): T1 sequence (P48546 22-466 L304R) with R283L, V378M

B1: L304R (protein)
chain: T1 sequence (P48546 22-466 L304R)
B2: R336P (protein)
chain: T1 sequence (P48546 22-466 L304R) with R283L, R315P
B3: E354Q (protein)
chain: T1 sequence (P48546 22-466 L304R) with R283L, E333Q
B4: I378M (protein)
chain: T1 sequence (P48546 22-466 L304R) with R283L, I357M
B5: S382T (protein)
chain: T1 sequence (P48546 22-466 L304R) with R283L, S361T
B6: S382Y (protein)
chain: T1 sequence (P48546 22-466 L304R) with R283L, S361Y
B7: K397N (protein)
chain: T1 sequence (P48546 22-466 L304R) with R283L, K376N
B8: V399M (protein)
chain: T1 sequence (P48546 22-466 L304R) with R283L, V378M

What follows are molecules tested against T1, GIPR L304R (assay: cAMP accumulation). Settings: not given.
Format: cell-based
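Throughout, for Beta, Barr: BRET readout of β-arrestin 2 recruitment in transiently transfected HEK293 cells expressing WT GIPR or a GIPR variant plus GPCR kinase 2, Rluc8 donor and citrine acceptor.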
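Throughout, for In vitro groups (β-arrestin): BRET readout of β-arrestin 2 recruitment in transiently transfected HEK293 cells expressing WT GIPR or a GIPR variant plus GPCR kinase 2, Rluc8 donor and citrine acceptor.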

Efficacy at 100pmol (cAMP) | Molecule
0.2373 | B1

These molecules were tested against T2, GIPR R336P (assay: cAMP accumulation). Settings: not given.
Format: cell-based

Efficacy at 100pmol (cAMP) | Molecule
0.3193 | B2

Each molecule was assayed against T3, GIPR E354Q (assay: cAMP accumulation). Settings: not given.
Format: cell-based

Efficacy at 100pmol (cAMP) | Molecule
1.125 | B3

Each molecule was assayed against T4, GIPR I378M (assay: cAMP accumulation). Settings: not given.
Format: cell-based

Efficacy at 100pmol (cAMP) | Molecule
0.8167 | B4

These molecules were tested against T5, GIPR S382T (assay: cAMP accumulation). Settings: not given.
Format: cell-based

Efficacy at 100pmol (cAMP) | Molecule
0.1068 | B5

The molecules below were run against T6, GIPR S382Y (assay: cAMP accumulation). Settings: not given.
Format: cell-based

Efficacy at 100pmol (cAMP) | Molecule
0.008271 | B6

What follows are molecules tested against T7, GIPR K397N (assay: cAMP accumulation). Settings: not given.
Format: cell-based

Efficacy at 100pmol (cAMP) | Molecule
0.5221 | B7

The molecules below were run against T8, GIPR V399M (assay: cAMP accumulation). Settings: not given.
Format: cell-based

Efficacy at 100pmol (cAMP) | Molecule
0.2386 | B8

These molecules were tested on GIPR variants (groups) (assay: cAMP accumulation). Settings: cAMP part of the in vitro group.
Format: cell-based, human

Molecule | In vitro groups (cAMP)
B1 | LoF_camp
B7 | WT-like_camp
B2 | LoF_camp
B5 | LoF_camp
B4 | WT-like_camp
B3 | WT-like_camp
B8 | LoF_camp
B6 | LoF_camp

Same assay, conditions: cAMP production compared with WT

Molecule | percentage_camp [% cAMP]
B1 | <50
B7 | >50
B2 | <50
B5 | <50
B4 | >50
B3 | >50
B8 | <50
B6 | <50

Same assay, conditions: in vitro cAMP production per GIPR variant

Molecule | Beta, cAMP
B1 | 0.2373
B7 | 0.5221
B2 | 0.3193
B5 | 0.1068
B4 | 0.8167
B3 | 1.125
B8 | 0.2386
B6 | 0.008271

The molecules below were run on GIPR variants (groups) (assay: β-arrestin 2 recruitment (BRET)). Settings: arr part of the in vitro group.

Molecule | In vitro groups (β-arrestin)
B1 | LoF_arr
B7 | LoF_arr
B2 | LoF_arr
B5 | LoF_arr
B4 | GoF_arr
B3 | WT-like_arr
B8 | LoF_arr
B6 | LoF_arr

Same assay, conditions: in vitro β-arrestin recruitment per GIPR variant

Molecule | Beta, Barr
B1 | 0.1329
B7 | 0.3822
B2 | 0.2102
B5 | 0.05782
B4 | 1.357
B3 | 0.9822
B8 | 0
B6 | 0
